Measurements as given in patent US20200148774A1 (Genentech, published 2020).
Several values for one entry are separate records, joined by “and”; a condition that tells them apart may be missing. Identical values can stand only once.

T1: recombinant human CLL-1 extracellular domain (ECD, amino acids 65-265) fused to an N-terminal Flag (human, UniProt Q5QGZ9 65-265)
T1 construct: The construct and the K244Q SNP are stated for the immunogen; they are not written as a piece; also called huCLL-1-Flag; huCLL-1
T1 chain: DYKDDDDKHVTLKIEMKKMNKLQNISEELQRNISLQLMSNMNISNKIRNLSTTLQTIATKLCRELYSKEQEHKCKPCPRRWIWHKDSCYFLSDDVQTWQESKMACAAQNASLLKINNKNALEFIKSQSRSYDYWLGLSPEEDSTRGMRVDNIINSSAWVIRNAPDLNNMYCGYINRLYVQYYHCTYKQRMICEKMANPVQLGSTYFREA

T2: recombinant cynomolgus CLL-1 extracellular domain (ECD, amino acids 65-265) fused to an N-terminal Flag (cynomolgus monkey)
T2 construct: Construct stated for the immunogen; also called CynoCLL-1 Flag; cynoCLL-1
T2 chain: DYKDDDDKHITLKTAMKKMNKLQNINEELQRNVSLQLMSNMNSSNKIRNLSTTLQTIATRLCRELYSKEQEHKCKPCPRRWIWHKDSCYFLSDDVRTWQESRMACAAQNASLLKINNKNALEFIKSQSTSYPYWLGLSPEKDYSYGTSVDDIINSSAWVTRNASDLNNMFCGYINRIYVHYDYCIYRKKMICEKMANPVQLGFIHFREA

T3: human CLL-1 on cells (endogenous on HL-60, EOL-1 and other AML cell lines and CD14+ monocytes); recombinant on … (human, UniProt Q5QGZ9 1-265)
T3 sequence: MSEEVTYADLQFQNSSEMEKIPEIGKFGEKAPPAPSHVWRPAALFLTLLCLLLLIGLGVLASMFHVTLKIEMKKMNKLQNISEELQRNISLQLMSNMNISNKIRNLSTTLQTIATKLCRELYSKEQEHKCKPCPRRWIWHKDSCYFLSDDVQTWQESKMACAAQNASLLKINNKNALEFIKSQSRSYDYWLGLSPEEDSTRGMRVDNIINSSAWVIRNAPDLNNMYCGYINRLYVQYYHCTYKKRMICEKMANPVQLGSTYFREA

B1: ch20B1 (antibody, V domains shown)
VH: EVQLQQSGPELVKPGALVKISCKASGYTFTSYDINWLKQRPGQGLEWIGWIYPGDGTTEYNERFKGKATLTADKSSSTAYLQLSSLTSENSAVYFCARSYDYDYAMDYWGQGTSVTVSS
VL: DIVLTQSPAIMSASPGEKVTMTCSASSSISYMYWYQQKPGTSPKRWIYDTSKLASGVPARFSGSGSGTSYSLTISSMEAEDAATYYCHQRSSWTFGGGTKLEIK
notes: chimeric version of m20B1, human IgG; also called chimeric 20B1; 2061 [sic]
B2: h6E7 (6E7.L4H1e)×38E4v1 TDB (bispecific antibody, V domains shown)
VH 1: EVQLVQSGAEVKKPGASVKVSCKASGYSFTDYYMHWVRQAPGQGLEWIGRINPYNGAAFYSQNFKDRVTLTVDTSTSTAYLELSSLRSEDTAVYYCAIERGADLEGYAMDYWGQGTLVTVSS
VL 1: DIQMTQSPSSLSASVGDRVTITCRASQSVSTSSYNYMHWYQQKPGKPPKLLIKYASNLESGVPSRFSGSGSGTDFTLTISSLQPEDFATYYCQHSWEIPLTFGQGTKVEIK
VH 2: EVQLVQSGAEVKKPGASVKVSCKASGFTFTSYYIHWVRQAPGQGLEWIGWIYPENDNTKYNEKFKDRVTITADTSTSTAYLELSSLRSEDTAVYYCARDGYSRYYFDYWGQGTLVTVSS
VL 2: DIVMTQSPDSLAVSLGERATINCKSSQSLLNSRTRKNYLAWYQQKPGQSPKLLIYWTSTRKSGVPDRFSGSGSGTDFTLTISSLQAEDVAVYYCKQSFILRTFGQGTKVEIK
B3: 6E7.L4H1e (antibody, V domains shown)
VH: EVQLVQSGAEVKKPGASVKVSCKASGYSFTDYYMHWVRQAPGQGLEWIGRINPYNGAAFYSQNFKDRVTLTVDTSTSTAYLELSSLRSEDTAVYYCAIERGADLEGYAMDYWGQGTLVTVSS
VL: DIQMTQSPSSLSASVGDRVTITCRASQSVSTSSYNYMHWYQQKPGKPPKLLIKYASNLESGVPSRFSGSGSGTDFTLTISSLQPEDFATYYCQHSWEIPLTFGQGTKVEIK
notes: humanized, assessed in the form of an IgG; also called humanized 6E7.L4H1e; h6E7
B4: 6E7.L4H1eD54 (antibody, V domains shown)
VH: EVQLVQSGAEVKKPGASVKVSCKASGYSFTDYYMHWVRQAPGQGLEWIGRINPYDGAAFYSQNFKDRVTLTVDTSTSTAYLELSSLRSEDTAVYYCAIERGADLEGYAMDYWGQGTLVTVSS
VL: DIQMTQSPSSLSASVGDRVTITCRASQSVSTSSYNYMHWYQQKPGKPPKLLIKYASNLESGVPSRFSGSGSGTDFTLTISSLQPEDFATYYCQHSWEIPLTFGQGTKVEIK
notes: IgG; also called h6E7D; H6E7.L4H1D54
B5: ch28H12 (antibody, V domains shown)
VH: QVQLQQSGAELVKPGASVKLSCTASGFNIKDTYMHWVKQRPEQGLEWIGRIDPANGDTDYDPKFQGKATVTADTSSNTAYLQLSSLTSEDTAVYYCTISGPPYYVMDYWGQGTSVTVSS
VL: DIQMTQSPASLAVSLGQRATISCRASQSVSSSSYSYMHWYQQKPGQPPKLLIKYASNLESGVPARFSGRGSGTDFTLNIHPVEEEDTATYYCQHSWEIPYTFGGGTRLEIK
notes: chimeric version of m28H12, human IgG; also called chimeric 28H12

Experiments:
[1] = target: T1, recombinant human CLL-1 extracellular …; test: SPR (Biacore), chimeric IgG captured by anti-human IgG, CLL-1 as analyte
Method: (§1) The chimeric anti-CLL-1 human IgG were captured by mouse anti-human IgG coated on the CM5 sensor chip. […] Association rates (kon) and dissociation rates (koff) were calculated using a simple one-to-one Langmuir binding model. The equilibrium dissociation constant (KD) was calculated as the ratio koff/kon.

[2] = target: T2, recombinant cynomolgus CLL-1 …; test: as above
Method: as §1

[3] = target: T1, recombinant human CLL-1 extracellular …; test: affinity column of the TDB summary table (rounded Biacore KD of the second the 8th table / the 4th table tables)
[4] = target: T2, recombinant cynomolgus CLL-1 …; test: as above
[5] = target: T3, human CLL-1 on cells (endogenous on …); test: cell-based or functional assay
[6] = target: T3, human CLL-1 on cells (endogenous on …); test: cell-based or functional assay; remark: listed apart in the source
[7] = target: T3, human CLL-1 on cells (endogenous on …); test: cell-based or functional assay; remark: listed apart in the source
[8] = target: T3, human CLL-1 on cells (endogenous on …); test: Scatchard, EOL-1 cells
[9] = target: T3, human CLL-1 on cells (endogenous on …); test: Scatchard, HL-60 cells
Method: Competition assay mixtures of 50 μL volume containing a fixed concentration of [1¹²⁵] labeled antibody and decreasing concentrations of serially diluted, unlabeled antibody were placed into 96-well plates. HEK293AD cells stably expressing recombinant hu or cynoCLL-1 or HL-60 tumor cells expressing endogenous CLL-1 were cultured in growth media at 37° C. in 5% CO₂. Cells were detached from the flask using Sigma Cell Dissociation Solution and were washed with binding buffer, which consisted of Dulbecco's Modified Eagle Medium (DMEM) with 1% bovine serum albumin (BSA), […] and 0.1% sodium azide. The washed cells were added to the 96 well plates at a density of 100,000 cells in 0.2 mL of binding buffer. […] The final concentration of the unlabeled antibody in the competition assay ranged from 1000 nM through ten 2-fold dilution steps to a 0 nM buffer-only assay. Competition assays were carried out in triplicate. Competition assays were incubated for 2 hours at room temperature. […] The filters were counted on a Wallac Wizard 1470 gamma counter (PerkinElmer Life and Analytical Sciences Inc.; Wellesley, Mass.). The binding data was evaluated using NewLigand software (Genentech), which uses the fitting algorithm of Munson and Robard to determine the binding affinity of the antibody (Munson and Robard 1980).

[10] = target: T3, human CLL-1 on cells (endogenous on …); test: Scatchard, 293AD/huCLL-1 cells
Method: Competition assay mixtures of 50 μL volume containing a fixed concentration of [1¹²⁵] labeled antibody and decreasing concentrations of serially diluted, unlabeled antibody were placed into 96-well plates. HEK293AD cells stably expressing recombinant hu or cynoCLL-1 or HL-60 tumor cells expressing endogenous CLL-1 were cultured in growth media at 37° C. in 5% CO₂. Cells were detached from the flask using Sigma Cell Dissociation Solution and were washed with binding buffer, which consisted of Dulbecco's Modified Eagle Medium (DMEM) with 1% bovine serum albumin (BSA), […] and 0.1% sodium azide. The washed cells were added to the 96 well plates at a density of 100,000 cells in 0.2 mL of binding buffer. […] The final concentration of the unlabeled antibody in the competition assay ranged from 1000 nM through ten 2-fold dilution steps to a 0 nM buffer-only assay. Competition assays were carried out in triplicate. Competition assays were incubated for 2 hours at room temperature. After the 2-hour incubation, the competition assays were transferred to a Millipore Multiscreen filter plate (Billerica, Mass.) and washed 4 times with binding buffer to separate the free from bound [I¹²⁵] labeled antibody. The filters were counted on a Wallac Wizard 1470 gamma counter (PerkinElmer Life and Analytical Sciences Inc.; Wellesley, Mass.). The binding data was evaluated using NewLigand software (Genentech), which uses the fitting algorithm of Munson and Robard to determine the binding affinity of the antibody (Munson and Robard 1980).

[11] = target: T1, recombinant human CLL-1 extracellular …; test: SPR (Biacore T200), IgG captured by anti-human Fc, CLL-1 as analyte
[12] = target: T2, recombinant cynomolgus CLL-1 …; test: as above
[13] = target: T1, recombinant human CLL-1 extracellular …; test: as above
[14] = target: T2, recombinant cynomolgus CLL-1 …; test: as above

Row | Binder | Kd [1] | koff [1] | kon [1] | Kd [2] | koff [2] | kon [2] | Kd [3] | Kd [4] | Kd [13] | koff [13] | kon [13] | Kd [14] | koff [14] | kon [14] | further results
1 | B1 | 4.5 nM | 0.001 s⁻¹ | 220000 M⁻¹ s⁻¹ | 6.1 nM | 0.0012 s⁻¹ | 190000 M⁻¹ s⁻¹ | 4.5 nM | 6.1 nM |  |  |  |  |  |  | 
2 | B2 |  |  |  |  |  |  |  |  |  |  |  |  |  |  | EC50 for killing target cells (EOL-1) [5]: 9.1 ng/mL; EC50 for killing target cells (THP-1) [5]: 5.4 ng/mL; EC50 of killing of EOL-1 (other donors) [5]: 7.4 ng/mL; EC50 of killing of EOL-1 target cells by cynomolgus pan-T cells [5]: ~5 ng/mL; EC50 of killing of HL-60 (other donors) [5]: 95.6 ng/mL; Cell killing EC50 (EOL-1 cells, human CD8+ T cells) [6]: 14 ng/mL; average killing EC50, EOL-1 (n = 5) [7]: 4.1 ng/mL; average killing EC50, HL-60 (n = 2) [7]: 104 ng/mL; average killing EC50, ML-2 [7]: 2.5 ng/mL; average killing EC50, Molm-13 (lowest expressor of CLL-1) [7]: 23 ng/mL; average killing EC50, NOMO-1 [7]: 12.2 ng/mL; average killing EC50, PL-21 [7]: 5.9 ng/mL; average killing EC50, THP-1 (n = 3) [7]: 3.6 ng/mL; average killing EC50, U937 [7]: 2.1 ng/mL; average killing EC50, human autologous CD14+ (n = 3) [7]: 2.8 ng/ml
3 | B3 |  |  |  |  |  |  | 1.1 nM | 2.2 nM | 1.08 nM | 0.000984 s⁻¹ | 910000 M⁻¹ s⁻¹ | 2.26 nM | 0.00181 s⁻¹ | 804000 M⁻¹ s⁻¹ | Kd [8]: 0.25 nM and 0.29 nM; Kd [9]: 0.6 nM and 0.34 nM; Kd [10]: 0.68 nM and 0.35 nM; Kd [11]: 0.622 nM; koff [11]: 0.000512 s⁻¹; kon [11]: 824000 M⁻¹ s⁻¹; Kd [12]: 0.317 nM; koff [12]: 0.000234 s⁻¹; kon [12]: 739000 M⁻¹ s⁻¹
4 | B4 |  |  |  |  |  |  | 113 nM | 48.7 nM | 113 nM | 0.0344 s⁻¹ | 304000 M⁻¹ s⁻¹ | 48.7 nM | 0.00869 s⁻¹ | 178000 M⁻¹ s⁻¹ | 
5 | B5 | 18 nM | 0.0095 s⁻¹ | 500000 M⁻¹ s⁻¹ | 0.3 nM | 0.00023 s⁻¹ | 670000 M⁻¹ s⁻¹ | 18 nM | 0.3 nM |  |  |  |  |  |  | 
